The values below come from patent US20250064934A1 (CENTURY THERAPEUTICS, published 2025).

In experiment [1] the target is T1, CD22 expressed on the cell surface (Raji, Daudi, CHO-CD22 and other CD22+ cells) (UniProt P20273 20-847, limits assumed).
T1 construct: whole, on cells; also called CD22 positive Raji cells; CD22+ Raji cells
T1 sequence (looked up): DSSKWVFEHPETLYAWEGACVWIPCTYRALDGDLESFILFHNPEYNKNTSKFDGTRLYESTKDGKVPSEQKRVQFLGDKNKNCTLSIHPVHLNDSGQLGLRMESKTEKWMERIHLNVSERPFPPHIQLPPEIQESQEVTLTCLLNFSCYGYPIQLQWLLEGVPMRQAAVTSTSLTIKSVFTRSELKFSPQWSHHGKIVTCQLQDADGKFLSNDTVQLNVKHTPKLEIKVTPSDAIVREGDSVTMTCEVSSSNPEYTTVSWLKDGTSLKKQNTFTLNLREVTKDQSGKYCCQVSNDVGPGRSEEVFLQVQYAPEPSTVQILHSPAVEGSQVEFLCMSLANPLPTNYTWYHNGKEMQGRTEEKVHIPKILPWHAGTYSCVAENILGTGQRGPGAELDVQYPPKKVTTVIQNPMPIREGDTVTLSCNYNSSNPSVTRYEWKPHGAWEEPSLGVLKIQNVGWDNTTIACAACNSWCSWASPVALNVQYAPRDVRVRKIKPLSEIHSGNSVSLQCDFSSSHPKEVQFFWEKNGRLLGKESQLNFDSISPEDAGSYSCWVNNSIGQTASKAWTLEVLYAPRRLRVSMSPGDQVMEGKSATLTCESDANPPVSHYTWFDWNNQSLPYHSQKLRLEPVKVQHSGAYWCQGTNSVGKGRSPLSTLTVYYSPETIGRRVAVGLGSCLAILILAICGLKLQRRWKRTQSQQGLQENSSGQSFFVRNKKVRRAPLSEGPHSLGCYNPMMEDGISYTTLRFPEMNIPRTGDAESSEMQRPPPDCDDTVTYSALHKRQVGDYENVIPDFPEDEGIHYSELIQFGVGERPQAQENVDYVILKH
In words: flow cytometry on Raji cells, PE-labeled anti-human IgG Fc detection. The method, then: FIGS. 1A-C show results of VHH-Fc fusion proteins that were examined by flow cytometry for CD22 cellular binding in Raji cells. […] No binding was seen to Raji CD22 knock-out cells. B) PROT265 and PROT810 (an affinity matured variant of PROT265) bind to Raji cells, with PROT810 showing improved binding relative to PROT265.
(§1) VHH-Fc proteins were tested for binding to CD22 expressed on the cell surface. VHH-Fc proteins were serially diluted and added to Raji cells and incubated at 4 C for 30 minutes. Cells were washed once in BD staining buffer, BSA (BD Pharmingen), then PE-labeled anti-human IgG Fc (Jackson Immnoresearch) was added to detect VHH-Fc cell binding and incubated at 4 C for 30 minutes. Cells were washed once, then resuspended in staining buffer with 0.1% pluronic acid and run through a flow cytometer to detect the fluorescent labeling of the VHH-Fc cells.

Experiment [2] addresses T2, monomeric CD22 (Acro Biosystems) (UniProt P20273 20-687).
T2 construct: Bought protein; also called CD22 antigen; soluble CD22 protein
T2 sequence (looked up): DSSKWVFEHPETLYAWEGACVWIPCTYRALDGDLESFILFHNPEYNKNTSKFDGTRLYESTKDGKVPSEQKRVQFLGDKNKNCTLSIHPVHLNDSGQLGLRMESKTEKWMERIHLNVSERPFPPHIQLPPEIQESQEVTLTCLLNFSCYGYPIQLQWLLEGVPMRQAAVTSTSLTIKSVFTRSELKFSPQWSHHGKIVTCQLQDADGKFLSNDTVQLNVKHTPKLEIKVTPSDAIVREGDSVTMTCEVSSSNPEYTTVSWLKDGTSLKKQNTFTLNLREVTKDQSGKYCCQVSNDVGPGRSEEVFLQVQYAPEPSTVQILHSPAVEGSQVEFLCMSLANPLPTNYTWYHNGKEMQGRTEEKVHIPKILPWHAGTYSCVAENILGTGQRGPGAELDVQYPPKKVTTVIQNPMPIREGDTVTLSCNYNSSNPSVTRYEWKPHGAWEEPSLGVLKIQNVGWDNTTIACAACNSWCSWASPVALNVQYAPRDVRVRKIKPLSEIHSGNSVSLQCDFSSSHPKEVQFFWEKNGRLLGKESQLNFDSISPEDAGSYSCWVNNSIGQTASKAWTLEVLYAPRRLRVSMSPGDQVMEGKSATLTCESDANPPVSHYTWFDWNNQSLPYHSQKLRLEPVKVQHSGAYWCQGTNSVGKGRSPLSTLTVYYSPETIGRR
In words: BLI (ForteBio Octet Red), VHH-Fc captured on anti-human IgG Fc sensor, monomeric CD22 at 250 nM. Here is the method: (§2) VHH-Fc fusion proteins were assessed for affinity against monomeric CD22 (Acro Biosystems) using the ForteBio Octet Red BLI instrument. VHH-Fc proteins were captured onto an anti-human IgG Fc sensor at 50 nM. Sensor tips were quenched with human IgG Fc protein at 100 nM, then CD22 antigen was added at 250 nM to assess binding kinetics. Association was examined for 600 seconds and dissociation was examined for 600 seconds, allowing for calculation of Kon, Kdis and KD.

Experiment [3] concerns the target T1, CD22 expressed on the cell surface …. Briefly: cell-based or functional assay.
In experiment [4] the target is T2, monomeric CD22 (Acro Biosystems). In words: protein affinity of VHH-IgG1 Fc fusions (summary sentence, method not named there); before affinity maturation. The method, then: as §2
Experiment [5] has as its target T1, CD22 expressed on the cell surface …. Briefly: flow cytometry on Raji cells, serially diluted VHH-Fc, detection with PE anti-human IgG Fc, % positive cells. Here is the method: as §1
For experiment [6], the target named is T2, monomeric CD22 (Acro Biosystems). Briefly: BLI affinity assessment of VHH-Fc fusions. Here is the method: as §2
(§3) The D04 clone was affinity matured by scanning mutagenesis of the CDRs and phage display selections for higher affinity clones. Variants were isolated and expressed as VHH-Fc fusions for affinity assessment.

For experiment [7] the target is unchanged. Briefly: protein affinity of VHH-IgG1 Fc fusions (summary sentence, method not named there); after affinity maturation of CDR3. Here is the method:
as §2, §3

A value given as a limit tells only on which side of the number the result lay.

B1: PROT740 (E04) VHH-Fc fusion protein (Fc fusion)
chain: EVQLLESGGGLVQPGGSLRLSCAASGFTSSSYVMGWYRQAPGKEREFVSSISTGGDAYYADSVKGRFTISRDNSKNTLYLQMNSLRAEDTAVYYCAADVWYYHGGAYDYWGQGTQVTVSS
notes: VHH fused to the human IgG1 Fc domain; not shown: human IgG1 Fc domain
As to B1, the EC50 in experiment [1] was ~2 nM. In experiment [2], this molecule showed a Kd of 23.3 nM, a koff of 0.000536 s⁻¹ and a kon of 23000 M⁻¹ s⁻¹.

B2: tandem VHH CAR D04_AM_D11-E04 (P1730) (bispecific antibody, part only; not given: which CAR backbone was used, part only)
chain, part: QVQLVESGGGLVQAGGSLRLSCAASGSEFTGYPMGWFRQAPGKEREFVAGSVGIGGSTNYADSVKGRFTISRDNAKNTVYLQMNSLKPEDTAVYYCAADKDYYKPYSRYRTAIRYDTWGQGTQVTVSSGSTSGSGKPGSGEGSTKGEVQLLESGGGLVQPGGSLRLSCAASGFTSSSYVMGWYRQAPGKEREFVSSISTGGDAYYADSVKGRFTISRDNSKNTLYLQMNSLRAEDTAVYYCAADVWYYHGGAYDYWGQGTQVTVSS
Take B2: the Raji cell killing by CAR-T cells (flow cytometry, 48 hours) in experiment [3] turned out to be 40%.

B3: PROT265 (D04) VHH-Fc fusion protein (Fc fusion)
chain: QVQLVESGGGLVQAGGSLRLSCAASGSEFTGYPMGWFRQAPGKEREFVAGSVGIGGSTNYADSVKGRFTISRDNAKNTVYLQMNSLKPEDTAVYYCAADKDYYKPYSRYRTVIRYETWGQGTQVTVSS
notes: also called CD22_D04; not shown: human IgG1 Fc domain
As to B3, in experiment [2], the Kd is 31.9 nM, the koff turned out to be 0.00257 s⁻¹ and the kon turned out to be 80800 M⁻¹ s⁻¹. Moreover, in experiment [4], binding was characterised by a dissociation constant (Kd) of 30 nM. For the same molecule, in experiment [5], the “EC50 (read off the curve)” value is ~1 nM.

B4: PROT810 (D04-AM-D11) VHH-Fc fusion protein (Fc fusion)
chain: QVQLVESGGGLVQAGGSLRLSCAASGSEFTGYPMGWFRQAPGKEREFVAGSVGIGGSTNYADSVKGRFTISRDNAKNTVYLQMNSLKPEDTAVYYCAADKDYYKPYSRYRTAIRYDTWGQGTQVTVSS
notes: I took that entry to be D04-AM-D11 on the strength of the name; also called DO4-D11-CD22 VHH; not shown: human IgG1 Fc domain
Turning to B4, in experiment [6], the “fold improvement of affinity over the D04 clone” value is 5 fold. In experiment [2], this molecule yielded a Kd of 6.97 nM, a koff of 0.000657 s⁻¹ and a kon of 94300 M⁻¹ s⁻¹. Besides, binding in experiment [7] was characterised by a dissociation constant (Kd) of 5 nM.

B5: PROT739 (A01) VHH-Fc fusion protein (Fc fusion)
chain: EVQLLESGGGLVQPGGSLRLSCAASGLTSYSYAMGWYRQAPGKEREFVSAISSGGSAYYADSVKGRFTISRDNSKNTLYLQMNSLRAEDTAVYYCAVGPYYGFRAVTEADYWGQGTQVTVSS
notes: as for B1
Consider B5, for which the concentration for a half-maximal effect (EC50) in experiment [1] was ~2 nM. In experiment [2], this molecule returned a Kd of 96.1 nM, a koff of 0.0102 s⁻¹ and a kon of 106000 M⁻¹ s⁻¹.

B6: tandem VHH CAR E04-D04_AM_D11 (P1738) (bispecific antibody, part only; not given: which CAR backbone was used, part only)
chain, part: EVQLLESGGGLVQPGGSLRLSCAASGFTSSSYVMGWYRQAPGKEREFVSSISTGGDAYYADSVKGRFTISRDNSKNTLYLQMNSLRAEDTAVYYCAADVWYYHGGAYDYWGQGTQVTVSSGSTSGSGKPGSGEGSTKGQVQLVESGGGLVQAGGSLRLSCAASGSEFTGYPMGWFRQAPGKEREFVAGSVGIGGSTNYADSVKGRFTISRDNAKNTVYLQMNSLKPEDTAVYYCAADKDYYKPYSRYRTAIRYDTWGQGTQVTVSS
For the molecule B6, the Raji cell killing by CAR-T cells (flow cytometry, 48 hours) in experiment [3] is < 20%.
